Measurements from patent publication US10508147B2, “Anti-nodal antibodies and methods of using same” (ANN AND ROBERT H. LURIE CHILDREN'S HOSPITAL OF CHICAGO, priority 2014, dated 2019).
Entries after “also recorded” stand apart in the source; their conditions may differ.

Columns and labels:
[1] = test system: C8161 melanoma cells; assay: Soft agar clonogenic / anchorage independent growth assay; type: cell-based, human; settings: three weeks in soft agar, vs untreated and IgG control
Protocol: (§1) Untreated cells, or cells treated with either IgG Control or 3D1 anti-Nodal antibody for 72 hours were cultured in soft agar for three weeks (soft agar clonogenic assay). […] C8161 cells were treated with either 4 μg/ml of either Santa Cruz (SC), or 3D1 function blocking anti-Nodal antibodies, or IgG Control and cultured in three dimensional cultures for 24 hours to measure their ability to engage in vasculogenic mimicry (VM).
C8161 melanoma cells (5,000 cells/well) were suspended in 0.35% agarose, RPMI 1640; 10% serum with of either 4 μg/ml mouse IgG control (Jackson ImmunoResearch, West Groove, Pa.) or 3D1 mAb (2.8 μg/ml) and were then overlayed onto a solidified layer of 0.5% agar; RPMI 1640; 10% serum in 6-well dishes. Cell clusters were allowed to form and were scored (50 cells or larger clusters) after 3 weeks in culture. Triplicate wells were averaged from separate experiments and presented as a percentage (mean±SEM) of IgG control.

[2] = test system: C8161 cells; assay: Vasculogenic mimicry / vasculogenic network formation assay in 3D culture; type: cell-based, human; settings: 24 hours, vs IgG control
Protocol: as §1
Three-dimensional matrices were prepared by spreading 75 μl of ice-cold Matrigel (average 12-15 mg/ml; Corning, Bedford, Mass.) into 12-well culture dishes and polymerized for one hour at 37° C. C8161 human melanoma cells (1×10^5 cells/well) were then plated onto the prepared Matrigel matrices in the presence of either 4 μg/ml mouse IgG control or 3D1 mAb (2.8 μg/ml). No additional antibody was added. Tubular network formation was then observed after 24 hr and images captured digitally using a Zeiss model 25 inverted microscope (Carl Zeiss, Inc, Thornwood, N.Y.) and Hitachi HV-C20 CCD camera (Hitachi Denshi Ltd., Woodbury, N.Y.). Mean values were calculated from images of at least four different fields of both the IgG control and 3D1 mAb treated cultures, and then analyzed using the AngioSys software package (TCS CellWorks, Ltd., Buckingham, UK) with the mean number (±SEM) of junctions and tubules calculated from the analyzed fields.

[3] = target: T1, hNodal(44-67) peptide (Homo sapiens, UniProt Q96S42); assay: ELISA screening of hybridoma supernatants on coated hNodal(44-67) and hNodal(44-67)E49A-E50A; type: binding; settings: peptides coated at 330 nM; supernatants at 5.0 μg/mL (33 nM)
T1 construct: made in house; host or cells: chemical synthesis (Fmoc solid phase)
Protocol: (§2) Screening of hybridoma supernatants was carried out by ELISA coating the hNodal(44-67) BSA-conjugated peptide. Nine clones were positive. The pre-selected hybridoma supernatants were screened using in parallel hNodal(44-67) and its mutated variant hNodal(44-67)E49A-E50A. The assay was performed coating the unconjugated peptides at 330 nM and testing the hybridoma supernatants at a total protein concentration of 5.0 μg/mL (33 nM).
(§3) For hybridoma supernatants screening, hNodal(44-67) and hNodal(44-67)E49A-E50A were coated at 330 nM diluted in PBS on polystyrene conical flat bottom 96-well plates at 4° C. overnight (100 μL/well). After incubation, the coated wells were washed three times with PBS containing 0.005% Tween-20 (PBS-T) and non-specific binding sites were blocked by incubating with 1% BSA in PBS (300 μL/well) for 1 h at 37° C. After washing three times with PBS-T, supernatants of hybridomas diluted in PBS at 33 nM were incubated for 1 h at 37° C. (100 μL/well). […] After incubation and three washes with PBS-T, bound antibodies were detected by adding 100 μL/well of freshly prepared 0-phenylenediamine (0.4 mg/mL) containing H2O2 (0.4 mg/mL) in 0.1 M citrate buffer (pH 5.2) (SIGMAFAST™ OPD tablet Sigma-Aldrich). The peroxidase reaction was stopped after 5 min with 50 μL/well of 2.5 M H2SO4 and the optical density was measured at 490 nm, using a microplate reader. […]

[4] = test system: hNodal(44-67) peptide; assay: as above; type: binding, human; settings: ELISA
Protocol: as §2, §3

T1 sequence (Q96S42 281-304): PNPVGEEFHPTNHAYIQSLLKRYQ

- recognition of the immobilized antigen hNodal(44-67) [3]: recognized the immobilized antigen
B1: 3D1: mouse monoclonal anti-Nodal antibody raised against hNodal(44-67); light chain SEQ ID NO:1, heavy chains SEQ ID NO:2 and 3 (protein)
light: DIKMTQSPASLSASVGETVTITCRASGNIHNYLAWYQQKQGKSPQLLVYNAKTLADGVPSRFSGSGSGTQYSLKINSLQPEDFGSYYCQHFWSTPHVRCWDQAGTETEAW
heavy 1: VKLVESGGGLVKPGGSLKLSCAASGFTFSSYAMSWVRQTPEKRLEWVASISSGGCTYYPDSVKGRFTISRDNARNILYLQMSSLRSEDTAMYYCARGSMITADGNSLLLCYGLLGSRNLXHR
heavy 2: VKLVESGGGLVQPGGSMKLSCVASGFTFRNYWMSWVRQSPEKGLEWVAEIRLKSDNYAARYAESVKGKFTISRDDSKSRLYLQMNSLRAEDTGIYYCTGIRRFAYWGQGTL
modifications: not fully specified; (120)..(120) Xaa can be any naturally occurring amino acid
- clonogenicity / anchorage independent growth in soft agar [1]: a decrease in clonogenicity
- clonogenicity / anchorage independent growth in soft agar ([1]; listed as 3D1 mAb): reduced ability to form non-adherent spheroidal clusters; also recorded: significant reduction in anchorage independent growth
- formation of vasculogenic mimicry networks (junctions and tubules) [2]: did not complete the formation of networks
- formation of vasculogenic mimicry networks (junctions and tubules) ([2]; listed as 3D1 mAb): unable to form complete networks characteristic of VM; also recorded: significant reduction in the ability to form junctions and tubules
- recognition of wild-type hNodal peptide versus E49A-E50A mutated variant [4]: displayed selectivity for wild type Nodal peptide; also recorded: much better than the mutated variant; also recorded: recognizes less robustly the mutated peptide variant
